We go through 35 molecules from publication PMC3795721, “Screening for Protein-DNA Interactions by Automatable DNA-Protein Interaction ELISA”.

The target in data set [1] is T1, AtTIFY1 (Arabidopsis thaliana, UniProt Q9LRH6 1-309).
T1 sequence: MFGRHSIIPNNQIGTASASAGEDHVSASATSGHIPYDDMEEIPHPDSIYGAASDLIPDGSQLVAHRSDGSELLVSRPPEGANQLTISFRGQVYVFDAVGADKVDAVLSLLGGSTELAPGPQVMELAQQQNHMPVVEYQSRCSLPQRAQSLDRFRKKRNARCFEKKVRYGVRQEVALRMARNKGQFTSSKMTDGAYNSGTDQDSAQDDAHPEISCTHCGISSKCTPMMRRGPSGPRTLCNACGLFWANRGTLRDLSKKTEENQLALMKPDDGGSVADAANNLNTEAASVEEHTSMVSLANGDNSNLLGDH
Description: DPI-ELISA; DPI-ELISA, streptavidin 384-well plate, 1-2 pmol biotinylated dsDNA per well, crude native E. coli extract, anti-His detection; buffer as in Brand et al. [46],; high values mean tight binding. Conditions: tags: C-terminal His (pET-DEST42); label: 5' biotin on forward strand.

For another data set, the target named is T2, AtbZIP63 (Arabidopsis thaliana, UniProt B9DGI8 1-314).
T2 sequence: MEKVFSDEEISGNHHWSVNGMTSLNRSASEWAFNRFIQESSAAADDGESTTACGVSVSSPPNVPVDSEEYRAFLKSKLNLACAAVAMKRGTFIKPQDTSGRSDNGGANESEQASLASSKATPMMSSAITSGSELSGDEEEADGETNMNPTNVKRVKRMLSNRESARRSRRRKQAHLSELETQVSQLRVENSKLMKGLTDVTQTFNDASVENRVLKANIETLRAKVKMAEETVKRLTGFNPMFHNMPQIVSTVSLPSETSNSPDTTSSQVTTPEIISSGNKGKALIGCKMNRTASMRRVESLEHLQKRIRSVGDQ
Described as above. Conditions: tags: C-terminal His (pET-DEST42); chain copies: 2; label: 5' biotin on forward strand.

The next data set concerns the target WRKY33 cDBD (Arabidopsis thaliana, UniProt Q8S8P5 345-449). Described as above. Conditions: tags: C-terminal His (pET-DEST42); label: 5' biotin on forward strand.
Data set [2] concerns the target T1, AtTIFY1. The data set is described as follows: DPI-ELISA; highest affinity; DPI-ELISA on streptavidin plates with biotinylated dsDNA (1 pmol in Figure S1, 2 pmol in Figure 1 legend) and crude E. coli extract; anti-His detection; buffer, pH and temperature not given (ref 46). As to conditions: protein: recombinant; tags: C-terminal His (pET-DEST42); label: 5' biotin on forward strand; blunt.

Sequence of WRKY33 cDBD (Q8S8P5 other isoform, or with tags, fused parts or gaps): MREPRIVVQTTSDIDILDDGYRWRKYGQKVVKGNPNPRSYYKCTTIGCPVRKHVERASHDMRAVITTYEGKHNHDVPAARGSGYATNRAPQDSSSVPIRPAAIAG

B1: 282 (dsDNA)
DNA 1: AAAAAACAGGCCGATTCCGATCCCGGAAAA
DNA 2: TTTTCCGGGATCGGAATCGGCCTGTTTTTT
Consider B1, for which the binding signal with AtTIFY1 [1] was 1.83 relative normalized absorbance.

B2: 124 (dsDNA)
DNA 1: AAAAAAACTCACGGCGTCACTATGGTAAAA
DNA 2: TTTTACCATAGTGACGCCGTGAGTTTTTTT
Regarding B2, in the data set with AtbZIP63, the binding signal was 2.46 relative normalized absorbance.

B3: 233 (dsDNA)
DNA 1: AAAAAAGGTCCAGTCCACGTCATCAGAAAA
DNA 2: TTTTCTGATGACGTGGACTGGACCTTTTTT
For B3, the binding signal is 2.34 relative normalized absorbance with WRKY33 cDBD and 2.57 relative normalized absorbance with AtbZIP63.

B4: 202 (dsDNA)
DNA 1: AAAAAAGATTGACTCGTCTTACTCGAAAAA
DNA 2: TTTTTCGAGTAAGACGAGTCAATCTTTTTT
With B4, the binding signal with WRKY33 cDBD was 2.3 relative normalized absorbance; in the data set with AtbZIP63, 2.68 relative normalized absorbance.

B5: 246 (dsDNA)
DNA 1: AAAAAACTGACCGTCAGCGCCCACGCAAAA
DNA 2: TTTTGCGTGGGCGCTGACGGTCAGTTTTTT
Consider B5, for which the binding signal is 2.09 relative normalized absorbance with WRKY33 cDBD and 1.96 relative normalized absorbance with AtbZIP63.

B6: 238 (dsDNA)
DNA 1: AAAAAATCGGGGATCCGGGCGGTTGCAAAA
DNA 2: TTTTGCAACCGCCCGGATCCCCGATTTTTT
Turning to B6, the binding signal with AtTIFY1 [1] is 1.69 relative normalized absorbance.

B7: probe 38 version with palindromic TGATCA (dsDNA)
DNA 1: AAAAAATTTATACTTGATCATGGCTTAAAA
DNA 2: TTTTAAGCCATGATCAAGTATAAATTTTTT
As for B7, in the data set with AtTIFY1 [2], the binding result is “binds”.

B8: 305 (dsDNA)
DNA 1: AAAAAACGCTTTCAGTTTTGATCTTAAAAA
DNA 2: TTTTTAAGATCAAAACTGAAAGCGTTTTTT
B8: the binding signal with AtTIFY1 [1] was 1.55 relative normalized absorbance.

B9: 300 (dsDNA)
DNA 1: AAAAAACTCGCGCTTGCATCTGTGCGAAAA
DNA 2: TTTTCGCACAGATGCAAGCGCGAGTTTTTT
Take B9: the binding signal with AtTIFY1 [1] was 1.45 relative normalized absorbance.

B10: 223 (dsDNA)
DNA 1: AAAAAAGGCCACGGTAACCCCTTTTGAAAA
DNA 2: TTTTCAAAAGGGGTTACCGTGGCCTTTTTT
With B10, the binding signal in the data set with AtbZIP63 is 2.06 relative normalized absorbance.

B11: 64 (dsDNA)
DNA 1: AAAAAATCGGGCCCCGTTAGCACTCTAAAA
DNA 2: TTTTAGAGTGCTAACGGGGCCCGATTTTTT
B11: the binding signal in the data set with AtbZIP63 was 2.04 relative normalized absorbance.

B12: 130 (dsDNA)
DNA 1: AAAAAACGCAACTCCGGATGTGGGGTAAAA
DNA 2: TTTTACCCCACATCCGGAGTTGCGTTTTTT
In the case of B12, in the data set with AtTIFY1 [1], the binding signal is 1.54 relative normalized absorbance.

B13: 227 (dsDNA)
DNA 1: AAAAAAGGCTCCGGCCCCCAATCGCAAAAA
DNA 2: TTTTTGCGATTGGGGGCCGGAGCCTTTTTT
With B13, the binding signal in the data set with AtTIFY1 [1] is 1.44 relative normalized absorbance.

B14: 15 (dsDNA)
DNA 1: AAAAAAATCCGATCGATGCATATATAAAA
DNA 2: TTTTATATATGCATCGATCGGATTTTTTT
As for B14, in the data set with AtTIFY1 [1], the binding signal was 1.63 relative normalized absorbance.

B15: 109 (dsDNA)
DNA 1: AAAAAATACGTCTACGTGGTTGTCGTAAAA
DNA 2: TTTTACGACAACCACGTAGACGTATTTTTT
Take B15: the binding signal with AtbZIP63 is 2.98 relative normalized absorbance.

B16: 108 (dsDNA)
DNA 1: AAAAAAGGCGTCTGACTGTAACTCGTAAAA
DNA 2: TTTTACGAGTTACAGTCAGACGCCTTTTTT
B16: the figures for the binding signal in the data set with WRKY33 cDBD and in the data set with AtbZIP63 were 2.35 relative normalized absorbance and 2.54 relative normalized absorbance, respectively.

B17: 44 (dsDNA)
DNA 1: AAAAAAGTACATGCGTAGATAATGTTAAAA
DNA 2: TTTTAACATTATCTACGCATGTACTTTTTT
For B17, the binding signal in the data set with AtbZIP63 was 2.11 relative normalized absorbance.

B18: 32 (dsDNA)
DNA 1: AAAAAACCTACGATGGTTCTGATCTTAAAA
DNA 2: TTTTAAGATCAGAACCATCGTAGGTTTTTT
Consider B18, for which the binding signal with AtTIFY1 [1] was 1.8 relative normalized absorbance.

B19: 276 (dsDNA)
DNA 1: AAAAAACATCGCTGTCGTTGACGTTGAAAA
DNA 2: TTTTCAACGTCAACGACAGCGATGTTTTTT
As to B19, the binding signal is 2.34 relative normalized absorbance with WRKY33 cDBD and 2.02 relative normalized absorbance in the data set with AtbZIP63.

B20: 234 (dsDNA)
DNA 1: AAAAAAGGTCTGGACGATCACCGGGAAAAA
DNA 2: TTTTTCCCGGTGATCGTCCAGACCTTTTTT
With B20, the binding signal with AtTIFY1 [1] is 1.7 relative normalized absorbance.

B21: 204 (dsDNA)
DNA 1: AAAAAAGGAAGTACTGACGATCTGGAAAAA
DNA 2: TTTTTCCAGATCGTCAGTACTTCCTTTTTT
With B21, in the data set with AtTIFY1 [1], the binding signal is 1.52 relative normalized absorbance.

B22: 314 (dsDNA)
DNA 1: AAAAAATTGGCACACATGATCTCGGGAAAA
DNA 2: TTTTCCCGAGATCATGTGTGCCAATTTTTT
With B22, the binding signal with AtTIFY1 [1] was 1.5 relative normalized absorbance.

B23: 270 (dsDNA)
DNA 1: AAAAAACATGTCGCACCTGTACTAACAAAA
DNA 2: TTTTGTTAGTACAGGTGCGACATGTTTTTT
Take B23: in the data set with AtbZIP63, the binding signal was 1.93 relative normalized absorbance.

B24: 160 (dsDNA)
DNA 1: AAAAAACGGTCGCGATCGTTAATGATAAAA
DNA 2: TTTTATCATTAACGATCGCGACCGTTTTTT
In the case of B24, the binding signal in the data set with WRKY33 cDBD is 2.05 relative normalized absorbance; in the data set with AtTIFY1 [1], 1.47 relative normalized absorbance.

B25: 294 (dsDNA)
DNA 1: AAAAAACGTGCGCGTGCATGTCATCGAAAA
DNA 2: TTTTCGATGACATGCACGCGCACGTTTTTT
As to B25, the binding signal in the data set with AtbZIP63 is 1.97 relative normalized absorbance.

B26: 201 (dsDNA)
DNA 1: AAAAAAGATCTAGGCCTTGGGACTCAAAAA
DNA 2: TTTTTGAGTCCCAAGGCCTAGATCTTTTTT
For B26, in the data set with AtTIFY1 [1], the binding signal is 1.81 relative normalized absorbance.

B27: 31 (dsDNA)
DNA 1: AAAAAATCCACGACTCAGCAGCTCTTAAAA
DNA 2: TTTTAAGAGCTGCTGAGTCGTGGATTTTTT
B27: in the data set with AtbZIP63, the binding signal is 2.32 relative normalized absorbance.

B28: 334 (dsDNA)
DNA 1: AAAAAATTCCGGCTTGACGCTGCATAAAAA
DNA 2: TTTTTATGCAGCGTCAAGCCGGAATTTTTT
Turning to B28, the binding signal with AtTIFY1 [1] is 1.43 relative normalized absorbance.

B29: 313 (dsDNA)
DNA 1: AAAAAATCGCGAACGTACGTCCGCGGAAAA
DNA 2: TTTTCCGCGGACGTACGTTCGCGATTTTTT
Turning to B29, the binding signal in the data set with AtbZIP63 was 2.62 relative normalized absorbance.

B30: 153 (dsDNA)
DNA 1: AAAAAATGTATTCGTGTCCACTCCATAAAA
DNA 2: TTTTATGGAGTGGACACGAATACATTTTTT
Consider B30, for which the binding signal in the data set with AtbZIP63 is 1.89 relative normalized absorbance.

B31: 239 (dsDNA)
DNA 1: AAAAAAGTCGTTACACGTATGCGTGCAAAA
DNA 2: TTTTGCACGCATACGTGTAACGACTTTTTT
With B31, the figures for the binding signal in the data set with WRKY33 cDBD and in the data set with AtbZIP63 were 2.32 relative normalized absorbance and 2.62 relative normalized absorbance, respectively.

B32: 287 (dsDNA)
DNA 1: AAAAAACACGCCATTGACACTGGTAAAAAA
DNA 2: TTTTTTACCAGTGTCAATGGCGTGTTTTTT
Regarding B32, in the data set with AtbZIP63, the binding signal is 1.99 relative normalized absorbance.

B33: 110 (dsDNA)
DNA 1: AAAAAAGCGTAAGCCTTGACAGTCGTAAAA
DNA 2: TTTTACGACTGTCAAGGCTTACGCTTTTTT
Turning to B33, the binding signal with AtbZIP63 was 1.94 relative normalized absorbance.

B34: 290 (dsDNA)
DNA 1: AAAAAATGTCTAGACTCGGACATTCGAAAA
DNA 2: TTTTCGAATGTCCGAGTCTAGACATTTTTT
In the case of B34, the binding signal with AtTIFY1 [1] is 1.52 relative normalized absorbance.

B35: 259 (dsDNA)
DNA 1: AAAAAAGTAGGTGCTGATGCTGGCCGAAAA
DNA 2: TTTTCGGCCAGCATCAGCACCTACTTTTTT
On to B35, for which the binding signal in the data set with AtbZIP63 was 1.92 relative normalized absorbance.
